Usually Kd stands for the free concentration of one partner at which half of the binding sites on the other are occupied at equilibrium, for simple one-to-one binding. A low value points to higher affinity. One may read the koff as the first-order rate constant of dissociation. What is called kon is the second-order rate constant of association. Lower therefore signals slower complex formation.

This assay addresses human TNFalpha (human) (UniProt P01375). Nature of the assay: SPR (BiaCore), antibody purified by protein A and SEC. On the technique in general: Surface plasmon resonance follows binding to a sensor surface in real time, without labels.
Sequence of UniProt P01375 (P01375 77-233 limits assumed): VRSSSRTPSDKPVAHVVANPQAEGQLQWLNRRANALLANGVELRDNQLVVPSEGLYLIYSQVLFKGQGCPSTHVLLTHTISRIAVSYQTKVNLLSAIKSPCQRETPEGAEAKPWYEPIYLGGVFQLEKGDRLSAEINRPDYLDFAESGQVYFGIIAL

For “D2E7 antibody product secreted from sORF construct pTT3-pfu lon HL (-)”, the Kd was 0.0729 nM, the koff turned out to be 0.00011 s⁻¹ and the kon turned out to be 1.51e+06 M⁻¹ s⁻¹.
